This note sets out measurements from patent publication US20170281796A1, “c-Met Antibody Drug Conjugate” (Sorrento Therapeutics, Inc., priority 2014, published 2017).

For the experiment, the system named is MDA-MB468. The experiment is described as follows: internalization of anti c-Met antibody in triple negative breast cancer cell line. It is filed as cell-based. Conditions: 1 μg/ml antibody, 180 min at 37° C.; FIG. 8. Here is the method:
Internalization of anti c-Met antibody IgG1 H8-A2 (also called STI-0602 SEQ ID NO. 25/SEQ ID NO. 26) in MDA-MB468. MDA-MB468 were plated overnight and incubated with 1 μg/ml anti-C-Met H8A2 antibody for 180 min at 37° C. Cells were stained with anti-AF488.

B1: H8-A2: anti c-Met antibody IgG1, heavy chain SEQ ID NO. 25 / light chain SEQ ID NO. 26 (antibody, V domains shown)
VH: EVQLVQSGAEVKKPGASVKVSCKASGYTFYSEYMHWVRQAPGQGLEWMGWINPNSGNTGVAPKFQGRVTMTRNTSISTAYMELSSLRSEDTAVYYCARRGTTVSFDTWGQGTLVTVSS
VL: QLVLTQSPSVSVAPGQRVTISCSGSNSNIGNNYVSWYHHLPGTAPKLLIYDNNKRPSGIPDRFSGSKSGTSATLGITGLQPGDEAHYYCGTWDSTLSAWAFGGGTKLTVL
modifications: Homo sapians
On to B1, for which the internalization result is on record as “internalized”.
